US20190359687A1 (Bayer, published 2019)
Values belong to the binder of their own block, whether it stands above or below them.

Key:
[1] = target: T1, human glycophorin A on human red blood cells (human, UniProt P02724 20-150); assay: partition to human RBC, vWF deficient plasma, 1 min
T1 construct: whole, on cells; also called human GPA; huGPA
T1 sequence (looked up): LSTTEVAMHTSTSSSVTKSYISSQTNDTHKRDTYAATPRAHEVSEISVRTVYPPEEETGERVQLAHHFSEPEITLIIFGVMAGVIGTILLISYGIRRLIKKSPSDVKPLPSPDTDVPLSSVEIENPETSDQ

[2] = target: T1, human glycophorin A on human red blood …; assay: partition to human RBC, vWF deficient plasma, 5 min
[3] = target: T1, human glycophorin A on human red blood …; assay: partition to human RBC, vWF deficient plasma, 15 min
[4] = target: T1, human glycophorin A on human red blood …; assay: partition to human RBC, vWF deficient plasma, 30 min
[5] = target: T1, human glycophorin A on human red blood …; assay: partition to human RBC, vWF deficient plasma, 60 min
[6] = target: T1, human glycophorin A on human red blood …; assay: partition to human RBC, vWF deficient plasma, 120 min
[7] = target: T2, Cynomolgus monkey glycophorin A on Cynomolgus monkey red blood cells (Cynomolgus monkey); assay: partition to Cyno RBC, human HemA plasma, 120 min;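 also: FVIII fusion spiked at 1 IU/mL into RBC suspension at whole-blood density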
T2 construct: whole, on cells; also called Cyno GPA; Cyno RBC
Method: To evaluate partition to cynomolgus monkey or human red blood cells, whole blood was draw from Cynomolgus monkey or normal human volunteers in to anticoagulant with 4% sodium citrate (Sigma, St Louis, Mo.). The red blood cells were purified by layering the whole blood on to ficoll followed by low speed centrifugation. The supernatant containing plasma, platelets and white blood cells was discarded and the red blood cell pellet was resuspended in 10 pellet volumes of PBS (50 mM Phosphate buffer, pH7.4, 150 mM NaCl). The red blood cells were then pelleted by slow speed centrifugation and the red blood cells re-suspended in 10 volumes of PBS. This washing step was repeated 4 more times and the red blood cells finally resuspended in a volume of plasma from Hemophilia patients with less than 1% of normal levels of FVIII (GeorgeKing Bio-Medical, Overland Park, Kans.) to generate a total volume equal to the initial blood volume such that the RBC density was equal to that of normal whole blood. BDD and RBC targeted FVIII molecules were then spiked into RBC suspension in HemA plasma at 1 IU/mL, and incubated at room temperature for 2-3 hours with gentle rotation. […] An additional control was performed in which BDD or RBC targeted FVIII molecules were added at 11U/ml into the same human hemophilia A plasma and incubated for 5 minutes and 180 mins. These samples were used to determine the input FVIII activity in the presence of plasma which was used to calculate the percentage of the molecule that was bound to RBC. All plasma samples were then assayed together for FVIII activity using the Coatest SP assay (DiaPharma, Columbus, Ohio). The assay was performed following the manufacturer's instructions in a 96-well plate format. […] The plate was incubated at 37° C. for 10 minutes with shaking between each reagent addition.

[8] = target: T3, glycophorin A peptide GP5 (human, biotin at the N-terminus); assay: Octet, GP5 peptide on the probe, fusion protein in solution, 1:1 fit
T3 construct: Residues 42 to 61 of the human glycophorin A extracellular domain
T3 peptide: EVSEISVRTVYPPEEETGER

percentage bound to human RBC [1]: 51.4%
percentage bound to human RBC [2]: 78.4%
percentage bound to human RBC [3]: 82.9%
percentage bound to human RBC [4]: 85.9%
percentage bound to human RBC [5]: 86.2%
percentage bound to human RBC [6]: 84.2%
B1: TPP-9161 FVIII-scFv fusion protein (other)
chain: ATRRYYLGAVELSWDYMQSDLGELPVDARFPPRVPKSFPFNTSVVYKKTLFVEFTDHLFNIAKPRPPWMGLLGPTIQAEVYDTVVITLKNMASHPVSLHAVGVSYWKASEGAEYDDQTSQREKEDDKVFPGGSHTYVWQVLKENGPMASDPLCLTYSYLSHVDLVKDLNSGLIGALLVCREGSLAKEKTQTLHKFILLFAVFDEGKSWHSETKNSLMQDRDAASARAWPKMHTVNGYVNRSLPGLIGCHRKSVYWHVIGMGTTPEVHSIFLEGHTFLVRNHRQASLEISPITFLTAQTLLMDLGQFLLFCHISSHQHDGMEAYVKVDSCPEEPQLRMKNNEEAEDYDDDLTDSEMDVVRFDDDNSPSFIQIRSVAKKHPKTWVHYIAAEEEDWDYAPLVLAPDDRSYKSQYLNNGPQRIGRKYKKVRFMAYTDETFKTREAIQHESGILGPLLYGEVGDTLLIIFKNQASRPYNIYPHGITDVRPLYSRRLPKGVKHLKDFPILPGEIFKYKWTVTVEDGPTKSDPRCLTRYYSSFVNMERDLASGLIGPLLICYKESVDQRGNQIMSDKRNVILFSVFDENRSWYLTENIQRFLPNPAGVQLEDPEFQASNIMHSINGYVFDSLQLSVCLHEVAYWYILSIGAQTDFLSVFFSGYTFKHKMVYEDTLTLFPFSGETVFMSMENPGLWILGCHNSDFRNRGMTALLKVSSCDKNTGDYYEDSYEDISAYLLSKNNAIEPRSFSQNGGGGSTGGTGGSSGGGTGSGGGGTGGSGGTDIQLTQSPSFLSASVGDRVTITCRASSSVRYIYWFQQKPGKAPKLLIYATSFRQSGVPSRFSGSGSGTEYTLTISSLQPEDFATYYCHQRNSFPYTFGQGTKLEIKGGGGSGGGGSGGGGSGGGGSEVQLVQSGAEVKKPGASVKVSCKASGYTFTTYAIHWVRQAPGQGLEWMGYINPSSGYTRYNPKFKGRVTMTRDKSTSTAYMELRSLRSDDTAVYYCWTGTRDYWGQGTTVTVSSGGGGSQNPPVLKRHQREITDENQSPRSFQKKTRHYFIAAVERLWDYGMSSSPHVLRNRAQSGSVPQFKKVVFQEFTDGSFTQPLYRGELNEHLGLLGPYIRAEVEDNIMVTFRNQASRPYSFYSSLISYEEDQRQGAEPRKNFVKPNETKTYFWKVQHHMAPTKDEFDCKAWAYFSDVDLEKDVHSGLIGPLLVCHTNTLNPAHGRQVTVQEFALFFTIFDETKSWYFTENMERNCRAPCNIQMEDPTFKENYRFHAINGYIMDTLPGLVMAQDQRIRWYLLSMGSNENIHSIHFSGHVFTVRKKEEYKMALYNLYPGVFETVEMLPSKAGIWRVECLIGEHLHAGMSTLFLVYSNKCQTPLGMASGHIRDFQITASGQYGQWAPKLARLHYSGSINAWSTKEPFSWIKVDLLAPMIIHGIKTQGARQKFSSLYISQFIIMYSLDGKKWQTYRGNSTGTLMVFFGNVDSSGIKHNIFNPPIIARYIRLHPTHYSIRSTLRMELMGCDLNSCSMPLGMESKAISDAQITASSYKTNMFATWSPSKARLHLQGRSNAWRPQVNNPKEWLQVDFQKTMKVTGVTTQGVKSLLTSMYVKEFLISSSQDGHQWTLFFQNGKVKVFQGNQDSFTPVVNSLDPPLLTRYLRIHPQSWVHQIALRMEVLGCEAQDLY
notes: also called PPB 7644

% bound to Cyno RBC [7]: 62.8%
percentage bound to human RBC [1]: 44.1%
percentage bound to human RBC [2]: 87.4%
percentage bound to human RBC [3]: 89.9%
percentage bound to human RBC [4]: 91.2%
percentage bound to human RBC [5]: 80.3%
percentage bound to human RBC [6]: 92.3%
Kd [8]: 1.27 nM
koff [8]: 0.00066 s⁻¹
kon [8]: 520000 M⁻¹ s⁻¹
B2: TPP-9423 FVIII-scFv fusion protein (other)
chain: DIQLTQSPSFLSASVGDRVTITCRASSSVRYIYWFQQKPGKAPKLLIYATSFRQSGVPSRFSGSGSGTEYTLTISSLQPEDFATYYCHQRNSFPYTFGQGTKLEIKGGGGSGGGGSGGGGSGGGGSEVQLVQSGAEVKKPGASVKVSCKASGYTFTTYAIHWVRQAPGQGLEWMGYINPSSGYTRYNPKFKGRVTMTRDKSTSTAYMELRSLRSDDTAVYYCWTGTRDYWGQGTTVTVSSGGGSGGGGSGLVPRGSGGGSGGGGSGATRRYYLGAVELSWDYMQSDLGELPVDARFPPRVPKSFPFNTSVVYKKTLFVEFTDHLFNIAKPRPPWMGLLGPTIQAEVYDTVVITLKNMASHPVSLHAVGVSYWKASEGAEYDDQTSQREKEDDKVFPGGSHTYVWQVLKENGPMASDPLCLTYSYLSHVDLVKDLNSGLIGALLVCREGSLAKEKTQTLHKFILLFAVFDEGKSWHSETKNSLMQDRDAASARAWPKMHTVNGYVNRSLPGLIGCHRKSVYWHVIGMGTTPEVHSIFLEGHTFLVRNHRQASLEISPITFLTAQTLLMDLGQFLLFCHISSHQHDGMEAYVKVDSCPEEPQLRMKNNEEAEDYDDDLTDSEMDVVRFDDDNSPSFIQIRSVAKKHPKTWVHYIAAEEEDWDYAPLVLAPDDRSYKSQYLNNGPQRIGRKYKKVRFMAYTDETFKTREAIQHESGILGPLLYGEVGDTLLIIFKNQASRPYNIYPHGITDVRPLYSRRLPKGVKHLKDFPILPGEIFKYKWTVTVEDGPTKSDPRCLTRYYSSFVNMERDLASGLIGPLLICYKESVDQRGNQIMSDKRNVILFSVFDENRSWYLTENIQRFLPNPAGVQLEDPEFQASNIMHSINGYVFDSLQLSVCLHEVAYWYILSIGAQTDFLSVFFSGYTFKHKMVYEDTLTLFPFSGETVFMSMENPGLWILGCHNSDFRNRGMTALLKVSSCDKNTGDYYEDSYEDISAYLLSKNNAIEPRSFSQNDENQSPRSFQKKTRHYFIAAVERLWDYGMSSSPHVLRNRAQSGSVPQFKKVVFQEFTDGSFTQPLYRGELNEHLGLLGPYIRAEVEDNIMVTFRNQASRPYSFYSSLISYEEDQRQGAEPRKNFVKPNETKTYFWKVQHHMAPTKDEFDCKAWAYFSDVDLEKDVHSGLIGPLLVCHTNTLNPAHGRQVTVQEFALFFTIFDETKSWYFTENMERNCRAPCNIQMEDPTFKENYRFHAINGYIMDTLPGLVMAQDQRIRWYLLSMGSNENIHSIHFSGHVFTVRKKEEYKMALYNLYPGVFETVEMLPSKAGIWRVECLIGEHLHAGMSTLFLVYSNKCQTPLGMASGHIRDFQITASGQYGQWAPKLARLHYSGSINAWSTKEPFSWIKVDLLAPMIIHGIKTQGARQKFSSLYISQFIIMYSLDGKKWQTYRGNSTGTLMVFFGNVDSSGIKHNIFNPPIIARYIRLHPTHYSIRSTLRMELMGCDLNSCSMPLGMESKAISDAQITASSYKTNMFATWSPSKARLHLQGRSNAWRPQVNNPKEWLQVDFQKTMKVTGVTTQGVKSLLTSMYVKEFLISSSQDGHQWTLFFQNGKVKVFQGNQDSFTPVVNSLDPPLLTRYLRIHPQSWVHQIALRMEVLGCEAQDLY
notes: also called 9423 (F2196K)
